B1: RNA 1 (ssRNA)
RNA: UUCAAC
B2: RNA 5 (ssRNA)
RNA: UUCAACGCC
B3: RNA 6 (ssRNA)
RNA: GGAUUCAACGCC
B4: RNA 4 (ssRNA)
RNA: UUCAACGC
B5: RNA 8 (ssRNA)
RNA: GAUUCAACGCC
modifications: pseudouridine at position 4 (nt 914)
B6: RNA 3 (ssRNA)
RNA: GGAUUCAAC
B7: RNA 12 (ssRNA)
RNA: UCAACGCC
modifications: pseudouridine at position 1 (nt 914)
B8: RNA 9 (ssRNA)
RNA: GAUUCAACGCC
modifications: pseudouridine at position 3 (nt 913)
B9: RNA 7 (complete hairpin loop 35) (ssRNA)
RNA: UUGGAUUCAACGCCGG

The target of the first data set is T1, MjNep1 (Methanocaldococcus jannaschii, UniProt Q57977 1-205). The data set is described as follows: NMR 15N-HSQC titration.
T1 sequence (Q57977 whole entry): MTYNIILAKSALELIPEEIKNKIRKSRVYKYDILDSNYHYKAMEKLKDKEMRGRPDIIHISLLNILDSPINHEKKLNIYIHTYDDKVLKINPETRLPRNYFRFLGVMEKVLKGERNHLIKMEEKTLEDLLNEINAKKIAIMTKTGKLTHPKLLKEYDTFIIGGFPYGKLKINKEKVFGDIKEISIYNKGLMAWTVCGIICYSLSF
What is called Kd is a measure of binding affinity in units of concentration. A lower Kd goes with a tighter complex. As for B1, the Kd was over 1000 nM.

A further data set concerns the target T1, MjNep1. The data set is described as follows: fluorescence quenching.
With B2, binding was put at a Kd of 8 ± 5 nM. B3 showed a Kd of 7 ± 2 nM.

In turn, B4 registered a dissociation constant (Kd) of 77 ± 27 nM. The same measure, in the same setting: under B5 stands 11 ± 4 nM; under B6, 1650 ± 380 nM; under B7, 7 ± 2 nM. The same measure, in the same setting: under B8 stands 2 ± 1 nM; under B9, 3 ± 1 nM.
